The target of assay [1] is T1, PfCSP_(71–104) (N-CSP construct) (Plasmodium falciparum, UniProt P19597).
T1 construct: Plasmodium falciparum circumsporozoite protein residues 71–104, cloned into a pETM-22 vector; pETM-22 adds, as far as I recall, an N-terminal thioredoxin and His6 with a 3C protease site; source: E. coli BL21(DE3), purified (HisTrap, SEC)
T1 chain: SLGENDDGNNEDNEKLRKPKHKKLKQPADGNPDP
Put plainly: ELISA; PfCSP71–104 coated at 50 ng/well; mAb at 4.00, 1.00, 0.25 and 0.06 µg/ml; goat anti-human IgG-HRP; area under the curve. As to conditions: both partners purified. A general note: An ELISA detects its analyte on a solid surface through an enzyme-linked reagent.

Assay [2] concerns the target PfCSP on the surface of live Pf NF54 sporozoites (Plasmodium falciparum NF54 (endogenous in sporozoites)) (UniProt P19597). Put plainly: flow cytometry on cells; imaging flow cytometry (ImageStreamX Mk II) of live (propidium iodide-negative) Pf salivary gland sporozoites; mAb 1 µg/ml, 30 min 4°C, Cy5 anti-human IgG1. A general note: Flow cytometry measures light scatter and fluorescence of single cells or particles in a stream.

Assay [3] has the same target. In words: flow cytometry on cells; imaging flow cytometry (ImageStreamX Mk II) of live (propidium iodide-negative) Pf midgut sporozoites isolated from oocysts; mAb 1 µg/ml, 30 min 4°C, Cy5 anti-human IgG1.
Another assay deals with T2, PfCSP_(81–98) peptide (Plasmodium falciparum, UniProt P19597).
T2 construct: Plasmodium falciparum circumsporozoite protein residues 81–98; Only residues 81–92 are resolved in the crystal structure; also called N-CSP peptide; source: synthetic peptide, bought: GenScript
T2 chain: EDNEKLRKPKHKKLKQPA
Put plainly: crystal structure; 5D5 Fab and PfCSP81–98 peptide mixed 1:5; 20% (wt/vol) PEG 3350, 0.2 M di-ammonium citrate; 1.85 Å. As to conditions: both partners purified.

Assay [4] deals with T1, PfCSP_(71–104) (N-CSP construct). In words: SEC; 5D5 Fab complexed with PfCSP71–104 at 1:1 molar ratio, with or without 100-fold molar excess of heparin sodium salt; Superdex 200 Increase 10/300 GL; peak fractions on non-reducing SDS-PAGE. As to conditions: both partners purified. For orientation: In gel filtration, larger molecules generally elute earlier.

Experimental findings from publication PMC7596816 (The Journal of Experimental Medicine, 2020) are described below.

Sequence of PfCSP on the surface of live Pf NF54 sporozoites (Plasmodium falciparum NF54 (endogenous in sporozoites)) (P19597 19-374): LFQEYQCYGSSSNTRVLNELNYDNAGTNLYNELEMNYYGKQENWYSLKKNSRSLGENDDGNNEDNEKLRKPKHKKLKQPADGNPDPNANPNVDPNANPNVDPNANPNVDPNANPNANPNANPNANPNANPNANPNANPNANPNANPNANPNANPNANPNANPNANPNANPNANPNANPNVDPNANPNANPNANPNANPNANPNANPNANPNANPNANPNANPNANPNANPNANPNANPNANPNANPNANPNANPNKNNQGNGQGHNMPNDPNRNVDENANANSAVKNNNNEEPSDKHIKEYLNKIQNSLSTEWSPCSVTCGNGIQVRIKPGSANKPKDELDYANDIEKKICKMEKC

B1: 5D5 IgG (5D5 variable regions on human Igγ1 and Igκ, for non-yeast display experiments) (antibody, V domains shown)
VH: QVHLQQSGGEVARPGASVKLSCKASGYTFTGYGLSWVKQRTGQGLEWIGEIYPRSGNTYYNEKFKGKATLTADKSSSTAYMELRSLTSEDSAVYFCARSWGNSSFVYWGQGTLVTVSA
VL: SIVMTQTPKFLLVSAGDRVTITCKASQSVTNDVTWYQQKPGQSPKLLIYYASNRYTGVPDRFTGSGYGTDFTFTISTVQAEDLAVYFCQQDYSSPFTFGSGTKLEIK
notes: as the heavy chain of m1 (5D5 VH + human Igγ1-CH1); two residues that replace the two stop codons of the Fab heavy chain vector; human immunoglobulin gamma-1 constant region, the part after the Fab heavy chain through the CH2 and CH3 domains; as the light chain of m1 (5D5 VL + human Igκ); Chimeric human IgG1; detected with anti-human IgG1 or anti-human IgG secondary antibodies; also called mAb …
For B1, the binding result in assay [1] is listed as “binds”. Moreover, in assay [2], the fold decrease in MFI of mAb-bound sporozoites against mAb 1210 was 2 fold; the mAb-bound sporozoites (pos1) of tot1 487, Exp 2 came to 82 sporozoites; the mAb-bound sporozoites (pos1) of tot1 545, Exp 1 stood at 176 sporozoites; the mAb-bound sporozoites (pos1) of tot1 1096, Exp 3 came to 316 sporozoites. Also, the proportion of mAb-bound sporozoites in assay [2] stood at 27%. Further, in assay [3], the mAb-bound sporozoites (pos1) of tot1 262, Exp 1 worked out at 67 sporozoites; the mAb-bound sporozoites (pos1) of tot1 728, Exp 2 worked out at 229 sporozoites; the mAb-bound sporozoites (pos1) of tot1 1,456, Exp 3 worked out at 366 sporozoites.

B2: 5D5 Fab expressed in HEK293F cells (complex glycan at H.Asn98) (Fab, V domains shown)
VH: B1 VH
VL: B1 VL
notes: murine mAb 5D5 VH cloned immediately upstream of human Igγ1-CH1; murine mAb 5D5 VL cloned immediately upstream of human Igκ; Chimeric Fab (mouse variable, human constant domains); The crystal structure used this glycoform; also called HEK293F–expressed 5D5 Fab; source: HEK293F, transient cotransfection, purified (KappaSelect, MonoS, SEC)
Regarding B2, the binding result (with PfCSP_(81–98) peptide; in assay [4]) was “binds” throughout.
